# Publication PMC4399498 (Nature communications, 2014)
# B1: KdpE-E216A (natural protein, E. coli, UniProt P21866 1-225, looked up)
# chain: MTNVLIVEDEQAIRRFLRTALEGDGMRVFEAETLQRGLLEAATRKPDLIILDLGLPDGDGIEFIRDLRQWSAVPVIVLSARSEESDKIAALDAGADDYLSKPFGIGELQARLRVALRRHSATTAPDPLVKFSDVTVDLAARVIHRGEEEVHLTPIEFRLLAVLLNNAGKVLTQRQLLNQVWGPNAVEHSHYLRIYMGHLRQKLEQDPARPRHFITATGIGYRFML
# Biological target: the molecule itself
# Assay: crystal structure
protein,measurement,value
B1,binding result,binds
